# Data reported in patent publication US20050283857A1 (UNIVERSITY OF GEORGIA RESEARCH FOUNDATION, published 2005).
# Biological target: Cry1Ab toxin (Bacillus thuringiensis)
# Test: 125I-Cry1Ab toxin binding saturation assay on S2 cells; dissociation constant (Kcom)
binder,measurement,value
Cad7-12 truncated Bt-R1a cadherin expressed in S2 cells (receptor) GTLEQNFRVREMSAGGLVVGSVRADDIDGPLYNQVRYTIFPREDTDKDLIMIDFLTGQISVNTSGAIDADTPPRFHLYYTVVASDRCSTEDPADCPPDPTYWETEGNITIHITDTNNKVPQAETTKFDTVVYIYENATHLDEVVTLIASDLDRDEIYHTVSYVINYAVNPRLMNFFSVNRETGLVYVDYETQGSGEVLDRDGDEPTHRIFFNLIDNFMGEGEGNRNQNDTEVLVILLDVNDNAPELPPPSELSWTISENLKQGVRLEPHIFAPDRDEPDTDNSRVGYEILNLSTERDIEVPELFVMIQIANVTGELETAMDLKGYWGTYAIHIRAFDHGIPQMSMNETYELIIHPFNYYAPEFVFPTNDAVIRLARERAVINGVLATVNGEFLERISATDPDGLHAGVVTFQVVGDEESQRYFQVVNDGANLGSLRLLQAVPEEIREFRITIRATDQGTDPGPLSTDMTFRVVFVPTQGEPRFASSEHAVAFIEKSAGMEESHQLPLAQDIKNHLCEDDCHSIYYRIIDGNSEGHFGLDPVRNRLFLKKELIREQSASHTLQVAASNSPDGGIPLPASILTVTVTVREADPRPVFMRELYTAGISTADSIGRELLRLHATQSEGAAITYAIDYDTMVVDPSLEAVRQSAFVLNAQTGVLTLNIQPTATMHGLFKFEVTATDTAGAQDRTDVTVYVVSSQNRVYFVFVNTLQQVEDNRDFIADTFSAGFNMTCNIDQVVPANDPVTGVALEHSTQMRGHFIRDNVPVLADEIEQIRSDLVLLSSIQTTLAARSLVLQDLLTNSSPDSAPDSSLTVYVLASLSAVLGFMCLVLLLTFIIRTRALNRRLEALSMTKYGSLDSGLNRAGIAAPGTNKHTVEGSNPIFNEAIKTPDLDAISEGSNDSDLIGIEDLPHFGNVFMDPEVNEKANGYPEVANHNNNFAFNPTPFSPEFVNGQFRKI,Kd,2.05 nM
